Experimental data: the supplement of paper PMC12764529
± gives the half width of the 95% confidence interval.

Assay: folding stability dG unfold from trypsin proteolysis; higher = more stable
Outline: (§1)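 Sequencing followed digestion of designed mini-proteins with trypsin and chymotrypsin, each at 11 concentrations in threefold dilutions together with a no-protease condition. The mini-proteins were under 80 residues, had no cysteine, sat in a PA-tagged cDNA display construct, and were kept only if AlphaFold2 dimer inter-PAE was above 15. From the counts, Bayesian fitting gave K50, and unfolding free energy was derived against a sequence-predicted unfolded-state K50 and a shared folded-state K50, per protease or combined.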

Row | Sequence | folding stability dG unfold
1 | SAGGSAGGSAGDKPITIFIPGTPDDIKDYIEDEGFKIKDIEIQYHKNKDGKYWVMVTIRVSAGGSAGGSAGG [r11_632_TrROS] | 2.87 ± 0.18 kcal/mol
2 | SAGGSAGGSAGGKPTITVTYDKENNTVTITFPDGSKIEITVPENATEEEVKKLVEELAKSAGGSAGGSAGGS [r10_33_TrROS_Hall] | 2.62 ± 0.18 kcal/mol
3 | SAGGSAGGSAGGKMLLIKITTKDGREFTLEISEEEAKKLAEELKKKFPNQKIEVEIVPLKSAGGSAGGSAGG [r7_349_TrROS_Hall] | 3.21 ± 0.18 kcal/mol
4 | SAGGSAGGSAGMPEKVTLTFERSSEVFDPKLGKWRTLPSTEVVEFDSEEEAEELKEKLGLSAGGSAGGSAGG [r11_984_JUSTAS] | -0.506 ± 0.55 kcal/mol
5 | SADMVMFPMTGEFHFPGWRIKVEITLMFHFTPNGKFGPNFHPMIKIEIVPPPPPPKITEEEADKANENGSAG [r14_442_TrROS] | 3.03 ± 0.22 kcal/mol
6 | SMVTVEEYEEDDEYYVKVYDPEKGVGVVFKTKDGVFKMPVTDPEALKEAIKASGIDVEIVEVRPLGPGLVSA [r9_1102_JUSTAS] | 0.357 ± 0.036 kcal/mol
7 | SAGGIRIRDEDGKPRAEYTIYHPDHGMPIEINVYRNKDGNPYIQVEMTGPNGRPKKFTMPADDLNDLSAGGS [r8_24_TrROS] | -0.862 ± 0.52 kcal/mol
8 | SAGGVEREPTEEDLLVATAEFLIEVRDPDSDYPLVEPVPITLPFTSLEDLLEELRRLKAEVEEALASSAGGS [r16_624_TrMRF] | 1.88 ± 0.092 kcal/mol
9 | SAGGWWIITIEFPNPEQIKKILEEAGWKVDIERRPNGSVTIFFPPDDVDKIKKAFPGFEINIHPIPPNSAGG [r13_261_TrROS] | 3.58 ± 0.11 kcal/mol
10 | SAGGSAWMTLEEFIKEAAKNFPPGREKEIWIRHPGYVFKIDIRVTGPGQVKIKIDKIVPFPDGEPISAGGSA [r15_150_TrROS] | 2.12 ± 0.067 kcal/mol
11 | SAGSIPELIREAFPSKVDRVEVTTEKLPNGTTKTTIKVYVDDPEVAERLAKEINELSGEPLENLTVTEESAG [r5_542_JUSTAS] | 0.0676 ± 0.11 kcal/mol
12 | SAGGSAGGSAGGPENDWREVDIKIKFENPEGKPIFDIKIYYMPDGDIMIYFPNGNWIWISAGGSAGGSAGGS [r10_972_TrROS] | 2.42 ± 0.14 kcal/mol
13 | SAGGSAGGSKTVTLTLTLPGKKITFTLTEDGTVRMTVYNEKTGEKVKEITVPAKNLEELLKALSAGGSAGGS [r20_129_TrROS_Hall] | 3.02 ± 0.085 kcal/mol
14 | SAGKIKIEKENGEVKIEIEVPEEEIEKLKKLLEELKKKGFEVEKVEVKVEKKEDGTVKVTIKVKIKPKPSAG [r5_739_TrROS_Hall] | 1.91 ± 0.13 kcal/mol
15 | SASLTLTITLPDGAKITSITVEEVDGELVLTEITVETTNENGEKTTVTRTIVLKLPPAPPAHPDDPALKSAG [r14_95_TrROS_Hall] | 2.13 ± 0.13 kcal/mol
16 | SAGGSAGGSAGMKPDDTVTYTITVPHPESGEPLAEIELTYPVGTPIEKVKEEAKILAEKISAGGSAGGSAGG [r11_516_TrMRF] | 0.515 ± 0.03 kcal/mol
17 | MNVTINITVLSPDSSGYTMKATVTFPETPVTTSKEYKTSDPVSAVEEIIKELVDEENLSNATVTTYPSSRLS [r1_399_JUSTAS] | -0.562 ± 0.22 kcal/mol
18 | SAGMTTEKSPSGVGRVYLPTRTLELELLPDGTVVLRFPDGTEVVHPLSPEEAAAVRAELRARGLVVRPLSAG [r5_753_JUSTAS] | 1.59 ± 0.062 kcal/mol
19 | SAGGFGIKIDEFDPDGEFRISIYDPDTWQPIAEFRIKIKPVPPPPPVEKRPYKDDDGEPKTVTHPDDQSAGG [r13_9_TrROS] | 0.542 ± 0.12 kcal/mol
20 | SAGGKKLLIKVRIEVFNENGELVREEEIEIEVEGMSEEELEELARELLAKLPPENVKIEVEIVELEESAGGS [r16_774_TrROS_Hall] | 4.34 ± 0.94 kcal/mol
21 | SKMYLVKIKIEVYKDGKLVKEEEIEIEVSEEEAKKLAEKLKEELPGYKVKIEIEVREIEPEDEELLKALESA [r9_782_TrROS_Hall] | 2.69 ± 0.15 kcal/mol

Row | Sequence | folding stability dG unfold
22 | SAGGSAGGGMRIDDIDIKQDPGNPNRYKITIKFDGPPIEFTVPPGEPLPIRFPDGKPLFEIPIDSAGGSAGG [r6_922_TrROS] | 0.312 ± 0.062 kcal/mol
23 | SAGGSAEIEIVIVVPEGASEEQVKALAKELKEELEKLLKVKDKDGKEKEVKIKKIKITVIVLPKEESAGGSA [r15_717_TrROS_Hall] | 2.37 ± 0.087 kcal/mol
24 | SAGSRVLTLVFEIPGRPEVVENLPEDVVLPDGARLYRDGERLLLVVEREVPSLPVLDADGRPVGPELLSAGG [r19_148_TrMRF] | 0.4 ± 0.027 kcal/mol
25 | SEKTVLSSSTSTSPTSITTTTTVKLPDGSLITTTTTYSSVTAAPTPAPGGTLVPTYSLPTTTTTTTLPPASA [r9_240_JUSTAS] | 0.845 ± 0.025 kcal/mol
26 | SGVQLEWKYDPEDNKREIKISIFFPADDPEKKKQFAKVIAKEIENMFQEQGWKPKKIDIEVMRMPPGQPLSA [r9_117_TrROS] | 0.889 ± 0.049 kcal/mol
27 | SAGVLTIEVQMPADDAEEFAEEVADTIARRLGFPPGFKIKVKVDRFDPDNGYVRVEATIEFPLPPNQPPSAG [r5_537_TrROS] | 2.61 ± 0.12 kcal/mol
28 | SAGGGQTIEIKFPVPNENYRVYLMVYDPDKPISVEPQRFDPPDGEVTDKIKLPPDVKIGFMAFPPEDMSAGG [r13_977_TrROS] | 0.631 ± 0.033 kcal/mol
29 | SAGGMPVPVTFPFAGADEVIAFATALEELVNAPVGLTLISPSGEEREVGDPDSIVDEDGFTVRVTVPASAGG [r13_620_TrMRF] | 1.38 ± 0.015 kcal/mol
30 | SMVKVEIEEENGEKTIRIVNEETGVVVEIKFPEGEEVIEVPSVEELVEELKELGENIEITKIEPLSEEELSA [r9_1102_TrROS_Hall] | 0.425 ± 0.14 kcal/mol
31 | SATGKLAELLEEAFPDRPIASAEILGVEPLPDGRPALRFLLTFEDGSKLVVTVTSADHPEVLEAARENQSAG [r14_143_TrMRF] | 3.04 ± 0.064 kcal/mol
32 | SAAPGAEVIEEKEIEVGGYTVTIVYNKDTDTVTIFVRNPDGTITEFTIDADTLEITEVREIKLPPGVELSAG [r14_676_TrROS_Hall] | 2.24 ± 0.084 kcal/mol
33 | SAGGSAGGSAGGPRTLTLTVTLTRTYYDEETGEEVETETETLTLTLRLEPPPPLSPEQLSAGGSAGGSAGGS [r10_50_TrROS_Hall] | 2.69 ± 0.061 kcal/mol
34 | SAGGSAGGSMNPEVPYAKVTLELKLPDGTTATLTLEVPLEEIPKVIEELKKKGYEILSIKIEPSAGGSAGGS [r12_986_JUSTAS] | 4.17 ± 0.23 kcal/mol
35 | SAGGSAGGSAGMKVEEVPETPVWRFTITRGKKTTIVEVEVPPDEPPDPAEVAAELGYELESAGGSAGGSAGG [r11_1053_JUSTAS] | 1.84 ± 0.075 kcal/mol
36 | SAGGSAGGGMKFVKVTLEYAGGEVREYLFTTSSSDSTVEVVIEDLPPEKGARITEITEYPASLLSAGGSAGG [r6_530_JUSTAS] | 0.746 ± 0.068 kcal/mol
37 | SAGGSAGGSAGGSMIVVPVTSNEVVDNLGGPVTVPAGTVIIIERTENSVKVEVLPPEKLSAGGSAGGSAGGS [r10_353_JUSTAS] | 0.917 ± 0.048 kcal/mol
38 | SAGGSAGGSAGGIRIEFPGMKFEIDEFDPPNGVITLRFPENGQELQIKFDSDGEITKITWSAGGSAGGSAGG [r7_553_TrROS] | 2.05 ± 0.2 kcal/mol
39 | SAGMVIPYKELKKNLSEEELIELAKEAAEKLGYKPKKIEIKETPEPDKYIVIDVIDENGNKHPIVFPSKSAG [r5_745_TrMRF] | 0.69 ± 0.036 kcal/mol
40 | SAGGSAGGSAGALPFKVKVVEVEVDGDEVTVKVVAELPTGTATVELKLGGKLETLTISPVSAGGSAGGSAGG [r17_45_TrMRF] | 1.49 ± 0.19 kcal/mol
41 | SAGGSAGGSAGSLELEFEFPKDTPLDKIIEELKKLIPEKDPKIEILKVEEKEGGLWIKARVSSAGGSAGGSA [r18_360_TrMRF] | 3.55 ± 0.085 kcal/mol
42 | SAGMKPNETLPNAIIRIENSKGKVKEFTLPNVVSIEEIDEKNGIITLTLPNNKKITLKVPKNAKITIEGSAG [r5_762_TrMRF] | 3.04 ± 0.11 kcal/mol

Assay: folding stability dG unfold (combined trypsin and chymotrypsin); higher = more stable
Outline: as §1

Row | Sequence | folding stability dG unfold
43 | SAGGSAGGSAGDKPITIFIPGTPDDIKDYIEDEGFKIKDIEIQYHKNKDGKYWVMVTIRVSAGGSAGGSAGG [r11_632_TrROS] | 3.19 ± 0.25 kcal/mol
44 | SAGGSAGGSAGGKPTITVTYDKENNTVTITFPDGSKIEITVPENATEEEVKKLVEELAKSAGGSAGGSAGGS [r10_33_TrROS_Hall] | 2.97 ± 0.22 kcal/mol
45 | SAGGSAGGSAGGKMLLIKITTKDGREFTLEISEEEAKKLAEELKKKFPNQKIEVEIVPLKSAGGSAGGSAGG [r7_349_TrROS_Hall] | 3.21 ± 0.14 kcal/mol
46 | SAGGSAGGSAGMPEKVTLTFERSSEVFDPKLGKWRTLPSTEVVEFDSEEEAEELKEKLGLSAGGSAGGSAGG [r11_984_JUSTAS] | 0.123 ± 0.31 kcal/mol
47 | SADMVMFPMTGEFHFPGWRIKVEITLMFHFTPNGKFGPNFHPMIKIEIVPPPPPPKITEEEADKANENGSAG [r14_442_TrROS] | 3.59 ± 0.26 kcal/mol
48 | SMVTVEEYEEDDEYYVKVYDPEKGVGVVFKTKDGVFKMPVTDPEALKEAIKASGIDVEIVEVRPLGPGLVSA [r9_1102_JUSTAS] | 0.492 ± 0.083 kcal/mol
49 | SAGGIRIRDEDGKPRAEYTIYHPDHGMPIEINVYRNKDGNPYIQVEMTGPNGRPKKFTMPADDLNDLSAGGS [r8_24_TrROS] | 0.266 ± 0.082 kcal/mol
50 | SAGGVEREPTEEDLLVATAEFLIEVRDPDSDYPLVEPVPITLPFTSLEDLLEELRRLKAEVEEALASSAGGS [r16_624_TrMRF] | 1.7 ± 0.14 kcal/mol
51 | SAGGWWIITIEFPNPEQIKKILEEAGWKVDIERRPNGSVTIFFPPDDVDKIKKAFPGFEINIHPIPPNSAGG [r13_261_TrROS] | 4.25 ± 0.089 kcal/mol
52 | SAGGSAWMTLEEFIKEAAKNFPPGREKEIWIRHPGYVFKIDIRVTGPGQVKIKIDKIVPFPDGEPISAGGSA [r15_150_TrROS] | 2.55 ± 0.11 kcal/mol
53 | SAGSIPELIREAFPSKVDRVEVTTEKLPNGTTKTTIKVYVDDPEVAERLAKEINELSGEPLENLTVTEESAG [r5_542_JUSTAS] | 0.652 ± 0.13 kcal/mol
54 | SAGGSAGGSAGGPENDWREVDIKIKFENPEGKPIFDIKIYYMPDGDIMIYFPNGNWIWISAGGSAGGSAGGS [r10_972_TrROS] | 3.75 ± 0.17 kcal/mol
55 | SAGGSAGGSKTVTLTLTLPGKKITFTLTEDGTVRMTVYNEKTGEKVKEITVPAKNLEELLKALSAGGSAGGS [r20_129_TrROS_Hall] | 4.29 ± 0.066 kcal/mol
56 | SAGKIKIEKENGEVKIEIEVPEEEIEKLKKLLEELKKKGFEVEKVEVKVEKKEDGTVKVTIKVKIKPKPSAG [r5_739_TrROS_Hall] | 2.99 ± 0.51 kcal/mol
57 | SASLTLTITLPDGAKITSITVEEVDGELVLTEITVETTNENGEKTTVTRTIVLKLPPAPPAHPDDPALKSAG [r14_95_TrROS_Hall] | 2.45 ± 0.15 kcal/mol
58 | SAGGSAGGSAGMKPDDTVTYTITVPHPESGEPLAEIELTYPVGTPIEKVKEEAKILAEKISAGGSAGGSAGG [r11_516_TrMRF] | 0.429 ± 0.088 kcal/mol
59 | MNVTINITVLSPDSSGYTMKATVTFPETPVTTSKEYKTSDPVSAVEEIIKELVDEENLSNATVTTYPSSRLS [r1_399_JUSTAS] | 0.0431 ± 0.19 kcal/mol
60 | SAGMTTEKSPSGVGRVYLPTRTLELELLPDGTVVLRFPDGTEVVHPLSPEEAAAVRAELRARGLVVRPLSAG [r5_753_JUSTAS] | 1.7 ± 0.1 kcal/mol
61 | SAGGFGIKIDEFDPDGEFRISIYDPDTWQPIAEFRIKIKPVPPPPPVEKRPYKDDDGEPKTVTHPDDQSAGG [r13_9_TrROS] | 1.43 ± 0.2 kcal/mol
62 | SAGGKKLLIKVRIEVFNENGELVREEEIEIEVEGMSEEELEELARELLAKLPPENVKIEVEIVELEESAGGS [r16_774_TrROS_Hall] | 4.16 ± 0.35 kcal/mol
63 | SKMYLVKIKIEVYKDGKLVKEEEIEIEVSEEEAKKLAEKLKEELPGYKVKIEIEVREIEPEDEELLKALESA [r9_782_TrROS_Hall] | 3.61 ± 0.12 kcal/mol
